T1: hFcµ-tFcµ-chi4 (human | Oncorhynchus mykiss (rainbow …))
T1 chain: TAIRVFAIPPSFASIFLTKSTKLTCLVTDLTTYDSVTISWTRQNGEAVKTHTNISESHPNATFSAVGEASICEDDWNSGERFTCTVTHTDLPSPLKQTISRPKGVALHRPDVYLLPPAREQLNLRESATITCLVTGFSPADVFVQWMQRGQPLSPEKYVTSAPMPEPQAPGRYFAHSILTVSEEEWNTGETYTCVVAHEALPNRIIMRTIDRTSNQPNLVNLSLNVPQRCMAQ


Tests used:
hFcµ-tFcµ-chi4 = molecular target: T1, hFcµ-tFcµ-chi4; assay: SEC-MALS; Superose 6 Increase 10/300, TBS buffer, 0.5 ml/min, 25 °C; 100 uL of protein at approximately 2 g/L; pIg peaks isolated from mIg by SEC before the analysis; settings: both partners purified
[1] = molecular target: full-length hFcµ expressed without JC (human, UniProt P01871 106-433); assay: as above; settings: both partners purified
full-length hFcµ expressed without JC, sequence (P01871 106-433): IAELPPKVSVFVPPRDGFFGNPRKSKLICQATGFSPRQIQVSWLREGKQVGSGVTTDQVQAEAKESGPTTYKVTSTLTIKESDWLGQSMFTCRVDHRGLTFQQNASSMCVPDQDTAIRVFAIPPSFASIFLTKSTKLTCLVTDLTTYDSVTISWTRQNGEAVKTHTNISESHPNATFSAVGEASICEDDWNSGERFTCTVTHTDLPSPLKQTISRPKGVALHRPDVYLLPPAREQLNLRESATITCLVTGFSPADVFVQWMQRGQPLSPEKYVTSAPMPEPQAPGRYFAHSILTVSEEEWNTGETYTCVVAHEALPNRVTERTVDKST

Binder	stoichiometry N (hFcµ-tFcµ-chi4)	stoichiometry N [1]
hFcµ-tFcµ-chi4 (other, N-glycosylated; probable tetramer (P1), also a monomer fraction (P2) / N-glycosylated; probable tetramer (P1), also a monomer fraction (P2)) TAIRVFAIPPSFASIFLTKSTKLTCLVTDLTTYDSVTISWTRQNGEAVKTHTNISESHPNATFSAVGEASICEDDWNSGERFTCTVTHTDLPSPLKQTISRPKGVALHRPDVYLLPPAREQLNLRESATITCLVTGFSPADVFVQWMQRGQPLSPEKYVTSAPMPEPQAPGRYFAHSILTVSEEEWNTGETYTCVVAHEALPNRIIMRTIDRTSNQPNLVNLSLNVPQRCMAQ	~4	
full-length hFcµ expressed without JC (domain or fragment, N-glycosylated, disulfide-linked hexamer of Fc dimers without J chain. Secretory form with tailpiece. N-terminus taken at TAIRVF (T343 in the paper's numbering), as in the printed chimeras; entity …) TAIRVFAIPPSFASIFLTKSTKLTCLVTDLTTYDSVTISWTRQNGEAVKTHTNISESHPNATFSAVGEASICEDDWNSGERFTCTVTHTDLPSPLKQTISRPKGVALHRPDVYLLPPAREQLNLRESATITCLVTGFSPADVFVQWMQRGQPLSPEKYVTSAPMPEPQAPGRYFAHSILTVSEEEWNTGETYTCVVAHEALPNRVTERTVDKSTGKPTLYNVSLVMSDTAGTCY		6

From article PMC10663602, “The structure of the teleost Immunoglobulin M core provides insights on polymeric antibody evolution, assembly, and function” (Nature Communications, 2023)
